We go through one molecule from PMC10636204.

This assay deals with T1, mouse TMEM63B (purified, GFP tag removed) (mouse), Q3TWI9.
T1 chain: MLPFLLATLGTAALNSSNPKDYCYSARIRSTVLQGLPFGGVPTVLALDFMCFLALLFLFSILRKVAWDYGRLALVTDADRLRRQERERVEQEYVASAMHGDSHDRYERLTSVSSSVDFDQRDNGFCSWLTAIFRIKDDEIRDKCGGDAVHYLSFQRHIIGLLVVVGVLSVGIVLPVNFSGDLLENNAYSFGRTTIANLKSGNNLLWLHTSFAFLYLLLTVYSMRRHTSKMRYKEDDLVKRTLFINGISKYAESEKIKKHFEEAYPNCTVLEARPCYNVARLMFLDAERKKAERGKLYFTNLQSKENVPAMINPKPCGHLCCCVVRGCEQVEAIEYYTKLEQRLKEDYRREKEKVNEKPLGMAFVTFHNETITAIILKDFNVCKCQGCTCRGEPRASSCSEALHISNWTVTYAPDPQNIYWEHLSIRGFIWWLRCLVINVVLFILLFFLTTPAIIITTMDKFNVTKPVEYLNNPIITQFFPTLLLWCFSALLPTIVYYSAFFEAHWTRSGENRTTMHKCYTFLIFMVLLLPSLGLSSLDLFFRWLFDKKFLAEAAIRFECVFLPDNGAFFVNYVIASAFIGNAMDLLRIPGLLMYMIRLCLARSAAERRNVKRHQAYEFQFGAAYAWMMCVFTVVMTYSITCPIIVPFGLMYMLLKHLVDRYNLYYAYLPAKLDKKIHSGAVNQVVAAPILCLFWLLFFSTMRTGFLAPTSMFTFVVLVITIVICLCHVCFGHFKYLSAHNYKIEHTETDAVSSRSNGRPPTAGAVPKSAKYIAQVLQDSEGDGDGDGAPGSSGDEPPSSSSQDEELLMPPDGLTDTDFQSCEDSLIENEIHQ
Nature of the assay: cryo-EM 2D classification; purified mouse TMEM63B; 2D classification of particles, top/bottom views. Conditions: remark: other sources report otherwise.

B1: mouse TMEM63B (purified, GFP tag removed), Q3TWI9 1-832 (natural protein)
chain: T1 chain
For orientation: stoichiometry N means a count of units in the complex or per binding partner. As to B1, the stoichiometry N is 2.
